Publication PMC12702194

Molecular target: Fibronectin 1 (FN1) (human (endogenous in C28/I2))
Assay: proximity ligation; Duolink in situ PLA on decellularized, fixed matrix of C28/I2 WT cells cultured for 72 h; primary antibodies mouse anti-fibronectin or mouse anti-Col II with rabbit anti-ERp57; controls: matrix of ERp57 KO cells and omitted primary antibodies; some cultures incubated with 10 mM DTT for 15 min at 37°C before decellularization (PLA signal significantly decreased)

Fibronectin 1 (FN1) (human (endogenous in C28/I2)), sequence (P02751 32-2477): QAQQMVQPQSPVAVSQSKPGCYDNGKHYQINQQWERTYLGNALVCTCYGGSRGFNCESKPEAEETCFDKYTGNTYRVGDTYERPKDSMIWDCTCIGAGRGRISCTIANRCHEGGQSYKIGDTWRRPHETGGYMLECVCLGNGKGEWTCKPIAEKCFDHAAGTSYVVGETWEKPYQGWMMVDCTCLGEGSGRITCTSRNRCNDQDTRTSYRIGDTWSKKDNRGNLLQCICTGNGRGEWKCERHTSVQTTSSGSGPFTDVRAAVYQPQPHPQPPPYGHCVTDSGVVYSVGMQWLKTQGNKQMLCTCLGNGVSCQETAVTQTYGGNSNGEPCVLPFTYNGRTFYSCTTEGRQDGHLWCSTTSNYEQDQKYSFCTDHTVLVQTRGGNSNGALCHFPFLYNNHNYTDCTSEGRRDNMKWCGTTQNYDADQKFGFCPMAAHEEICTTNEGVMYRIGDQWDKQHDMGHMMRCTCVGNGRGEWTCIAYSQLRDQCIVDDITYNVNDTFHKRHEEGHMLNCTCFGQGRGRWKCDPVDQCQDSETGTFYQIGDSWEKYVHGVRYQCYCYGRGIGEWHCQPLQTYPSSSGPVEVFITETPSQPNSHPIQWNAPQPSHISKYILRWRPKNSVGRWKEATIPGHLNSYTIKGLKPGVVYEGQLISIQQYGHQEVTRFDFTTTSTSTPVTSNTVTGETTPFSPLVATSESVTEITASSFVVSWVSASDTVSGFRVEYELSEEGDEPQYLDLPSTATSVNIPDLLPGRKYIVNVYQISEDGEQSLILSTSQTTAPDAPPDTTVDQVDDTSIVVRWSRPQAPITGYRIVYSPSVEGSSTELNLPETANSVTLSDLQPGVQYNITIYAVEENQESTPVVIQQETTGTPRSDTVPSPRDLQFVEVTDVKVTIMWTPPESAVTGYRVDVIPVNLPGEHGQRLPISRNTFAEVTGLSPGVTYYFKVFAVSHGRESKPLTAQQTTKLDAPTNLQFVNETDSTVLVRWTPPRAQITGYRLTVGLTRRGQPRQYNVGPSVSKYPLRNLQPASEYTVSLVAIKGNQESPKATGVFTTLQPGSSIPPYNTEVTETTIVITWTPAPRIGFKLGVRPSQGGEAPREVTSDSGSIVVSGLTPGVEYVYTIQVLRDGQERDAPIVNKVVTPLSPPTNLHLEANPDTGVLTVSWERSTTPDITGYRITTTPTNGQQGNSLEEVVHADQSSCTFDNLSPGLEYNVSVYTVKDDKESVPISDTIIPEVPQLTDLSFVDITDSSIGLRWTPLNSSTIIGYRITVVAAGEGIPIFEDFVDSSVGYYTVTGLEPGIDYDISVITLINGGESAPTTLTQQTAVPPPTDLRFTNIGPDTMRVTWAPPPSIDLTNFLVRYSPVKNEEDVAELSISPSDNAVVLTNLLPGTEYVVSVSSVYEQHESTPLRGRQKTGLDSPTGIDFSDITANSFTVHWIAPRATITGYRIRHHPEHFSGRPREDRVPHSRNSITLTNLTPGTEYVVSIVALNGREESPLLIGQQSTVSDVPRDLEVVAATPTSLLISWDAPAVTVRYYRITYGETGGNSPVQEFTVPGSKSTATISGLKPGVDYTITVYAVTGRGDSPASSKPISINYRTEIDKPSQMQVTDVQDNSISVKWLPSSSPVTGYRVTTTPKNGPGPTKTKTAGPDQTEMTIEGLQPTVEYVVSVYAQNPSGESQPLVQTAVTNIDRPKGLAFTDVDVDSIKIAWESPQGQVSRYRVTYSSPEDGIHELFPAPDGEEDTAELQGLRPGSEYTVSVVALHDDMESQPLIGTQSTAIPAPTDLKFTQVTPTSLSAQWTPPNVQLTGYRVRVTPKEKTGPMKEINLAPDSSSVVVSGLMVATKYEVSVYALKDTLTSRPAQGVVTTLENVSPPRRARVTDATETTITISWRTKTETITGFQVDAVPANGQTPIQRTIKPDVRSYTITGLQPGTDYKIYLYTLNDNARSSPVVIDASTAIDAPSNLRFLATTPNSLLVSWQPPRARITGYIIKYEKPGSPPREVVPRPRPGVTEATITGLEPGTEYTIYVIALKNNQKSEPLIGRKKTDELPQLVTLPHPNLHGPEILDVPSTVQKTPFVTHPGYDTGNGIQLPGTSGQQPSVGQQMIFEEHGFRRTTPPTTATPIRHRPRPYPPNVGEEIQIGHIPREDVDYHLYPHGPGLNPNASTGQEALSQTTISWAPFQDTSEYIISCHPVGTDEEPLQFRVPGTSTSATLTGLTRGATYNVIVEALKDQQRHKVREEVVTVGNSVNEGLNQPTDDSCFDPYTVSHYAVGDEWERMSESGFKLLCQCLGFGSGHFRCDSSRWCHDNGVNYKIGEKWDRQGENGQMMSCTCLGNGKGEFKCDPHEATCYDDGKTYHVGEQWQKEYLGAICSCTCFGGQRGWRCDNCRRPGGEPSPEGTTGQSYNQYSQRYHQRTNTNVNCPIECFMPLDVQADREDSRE

- PLA mean staining intensity: 0.284
Substance: endoplasmic reticulum protein 57 (ERp57) (from UniProt P30101 25-505) (enzyme)
